± gives the uncertainty stated by the source.
Experiment: self-splicing fitness, log relative to wild type (ln ratio); higher = more splicing; Tetrahymena group I intron in knt gene, E. coli kanamycin selection, DiMSum; sequences stand for … in CUCUCU…GGAGGGAAAAGUUAUCAGGCAUGCACCUGGUAGCUAGUCUUUAAACCAAUAGAUUGCAUCGGUUUAAAAGGCAAGACCGUCAAAUUGCGGGAAAGGGGUCAACAGCCGUUCAGUACCAAGUCUCAGGGGAAACUUUGAGAUGGCCUUGCAAAGGGUAUGGUAAUAAGCUGACGGACAUGGUCCUAACCACGCAGCCAAGUCCUAAGUCAACAGAUCUUCUGUUGAUAUGGAUGCAGUUCACAGACUAAAUGUCGGUCGGGGAAGAUGUAUUCUUCUCAUAAGAUAUAGUCGGACCUCUCCUUAAUGGGAGCUAGCGGAUGAAGUGAUGCAACACUGGAGCCGCUGGGAACUAAUUUGUAUGCGAAAGUAUAUUGAUUAGUUUUGGAGUACUCGUGGUCG
How it was run: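 DiMSum derived fitness as the error-weighted combination of fold changes across replicates, kanamycin versus no kanamycin, normalised to wild type. E. coli BL21(DE3) held the library, which randomised all eight P1ex-region intron nucleotides within the knt kanamycin-resistance gene on pET-22b(+). Six replicate transformations grew overnight at 37°C or 30°C on LB agar with or without 25 μg/mL kanamycin, also containing 100 μg/mL carbenicillin, 50 μM IPTG and 0.2% rhamnose, and pooled colonies were amplicon-sequenced on an Illumina HiSeq 2500.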

Sequence | self-splicing fitness (ln) (30 °C) | self-splicing fitness (ln) (37 °C)
GAACAGCAAUAUUACGGCUG | -2.78 ± 0.14 | -2.06 ± 0.15
AGUGAGCAAUAUUACGUAGA | -3.84 ± 0.23 | -3.38 ± 0.32
CAUUAGCAAUAUUACGUGAU | -3.57 ± 0.12 | -1.87 ± 0.1
ACGUAGCAAUAUUACGCUCG | -2.16 ± 0.12 | -0.0752 ± 0.15
ACGGAGCAAUAUUACGGCAU | – | -1.53 ± 0.23
AACUAGCAAUAUUACGUGUA | -2.2 ± 0.09 | -0.888 ± 0.09
UGUGAGCAAUAUUACGCUAG | -3.43 ± 0.32 | -1.59 ± 0.2
GCAAAGCAAUAUUACGUUCG | -1.51 ± 0.08 | -0.192 ± 0.12
CCCGAGCAAUAUUACGCGUA | -3.06 ± 0.21 | -2.05 ± 0.21
CGUUAGCAAUAUUACGGCGG | -0.628 ± 0.1 | -0.396 ± 0.12
GAGCAGCAAUAUUACGAUGA | -2.62 ± 0.25 | -1.03 ± 0.14
ACCGAGCAAUAUUACGUGUG | -2.5 ± 0.08 | -1.79 ± 0.079
CUCUAGCAAUAUUACGUAAA | -3.71 ± 0.35 | -0.971 ± 0.17
GAACAGCAAUAUUACGACUC | 0.0151 ± 0.071 | -0.517 ± 0.082
GCGCAGCAAUAUUACGACUG | -1.91 ± 0.12 | -1.98 ± 0.23
ACUCAGCAAUAUUACGCGCA | -0.615 ± 0.14 | -0.153 ± 0.1
GCGUAGCAAUAUUACGUGCA | -1.53 ± 0.12 | -1.02 ± 0.13
GGCCAGCAAUAUUACGUCGA | -2.72 ± 0.21 | -1.46 ± 0.2
CGCGAGCAAUAUUACGGCAC | – | -1.87 ± 0.41
CCUUAGCAAUAUUACGGAGC | -3.54 ± 0.34 | -2.4 ± 0.25
UAAAAGCAAUAUUACGCUGG | -1.46 ± 0.13 | -1.65 ± 0.17
AUUAAGCAAUAUUACGCUCG | -0.344 ± 0.11 | 0.171 ± 0.15
AACCAGCAAUAUUACGGCGC | -0.046 ± 0.068 | -0.103 ± 0.086
CGGCAGCAAUAUUACGGCAA | -1.1 ± 0.083 | -1.27 ± 0.1

Sequence | self-splicing fitness (ln) (30 °C) | self-splicing fitness (ln) (37 °C)
UUUGAGCAAUAUUACGCGGU | -2.67 ± 0.28 | -2.37 ± 0.35
ACCAAGCAAUAUUACGAGGC | -3.14 ± 0.14 | -2.32 ± 0.22
ACAUAGCAAUAUUACGUUCA | -1.39 ± 0.095 | -0.808 ± 0.13
CCUGAGCAAUAUUACGGCCC | -2.54 ± 0.32 | –
AUUGAGCAAUAUUACGAACG | -2.34 ± 0.18 | -0.91 ± 0.3
UUAUAGCAAUAUUACGAAGG | -3.25 ± 0.39 | -1.67 ± 0.33
GUGUAGCAAUAUUACGUGAU | -1.59 ± 0.17 | 0.0886 ± 0.19
GAUCAGCAAUAUUACGUUGC | -2.84 ± 0.27 | -3.1 ± 0.31
UGUAAGCAAUAUUACGAACU | -0.349 ± 0.12 | -0.682 ± 0.12
AGUAAGCAAUAUUACGCCUA | -0.00931 ± 0.12 | 0.208 ± 0.12
GAGGAGCAAUAUUACGCGCA | -2.42 ± 0.2 | -0.968 ± 0.16
UUCUAGCAAUAUUACGGUUC | -2.74 ± 0.26 | -2.44 ± 0.27
AUCCAGCAAUAUUACGAUAU | -0.123 ± 0.075 | -0.114 ± 0.071
UAGCAGCAAUAUUACGCAAU | -2.82 ± 0.13 | -1.68 ± 0.11
GCCGAGCAAUAUUACGCUAG | -2.67 ± 0.17 | -3.17 ± 0.29
CAACAGCAAUAUUACGUGGA | -3.08 ± 0.13 | -2.08 ± 0.096
ACUGAGCAAUAUUACGGCGC | -1.09 ± 0.088 | -0.47 ± 0.11
UCGCAGCAAUAUUACGCUGA | -2.33 ± 0.21 | -1.15 ± 0.14
AAGCAGCAAUAUUACGCGGA | -2.59 ± 0.13 | -1.46 ± 0.11
UAGAAGCAAUAUUACGCGUC | -2.53 ± 0.18 | -1.56 ± 0.18
GUGGAGCAAUAUUACGGUAA | -2.05 ± 0.11 | -2.95 ± 0.19
GCGAAGCAAUAUUACGAGCG | -2.04 ± 0.14 | -1.11 ± 0.19
CGCCAGCAAUAUUACGCACU | -2.23 ± 0.14 | -1.47 ± 0.14
CAGGAGCAAUAUUACGUUUA | -3.29 ± 0.15 | -2.44 ± 0.15

Sequence | self-splicing fitness (ln) (30 °C) | self-splicing fitness (ln) (37 °C)
GUCAAGCAAUAUUACGAUAG | -4.6 ± 0.42 | -3.02 ± 0.47
UAAUAGCAAUAUUACGGCCC | -2.07 ± 0.34 | -0.336 ± 0.46
CCAGAGCAAUAUUACGUUUA | -3.95 ± 0.29 | -1.78 ± 0.2
CUAUAGCAAUAUUACGGACA | -2.77 ± 0.22 | -1.1 ± 0.29
AUGAAGCAAUAUUACGGUUA | -0.509 ± 0.058 | 0.318 ± 0.077
UAGUAGCAAUAUUACGUAAU | -2.43 ± 0.13 | -2.19 ± 0.13
GACUAGCAAUAUUACGUGGA | -1.46 ± 0.13 | -1.07 ± 0.16
AUUAAGCAAUAUUACGCUUA | -2.18 ± 0.26 | -1.82 ± 0.25
CUGUAGCAAUAUUACGAUCA | -2.29 ± 0.25 | -1.96 ± 0.42
ACAGAGCAAUAUUACGCGUC | – | -2.07 ± 0.29
GACAAGCAAUAUUACGAAGG | -4.06 ± 0.19 | -2.27 ± 0.19
UUUCAGCAAUAUUACGCGAU | -3.39 ± 0.15 | -2.47 ± 0.16
CCACAGCAAUAUUACGUCCU | -3.44 ± 0.27 | -1.76 ± 0.19
ACGUAGCAAUAUUACGACCU | -0.0641 ± 0.099 | 0.527 ± 0.11
CCAGAGCAAUAUUACGUACG | -1.46 ± 0.12 | -0.669 ± 0.13
UCUGAGCAAUAUUACGGGGC | -3.3 ± 0.32 | -2.7 ± 0.36
AAUCAGCAAUAUUACGGGCG | -0.742 ± 0.059 | -0.382 ± 0.075
AAAAAGCAAUAUUACGACGA | 0.0233 ± 0.084 | -0.502 ± 0.1
CAAUAGCAAUAUUACGCUUC | -4.65 ± 0.36 | -2.95 ± 0.35
UGCUAGCAAUAUUACGAACU | -1.12 ± 0.15 | -0.251 ± 0.15
UCCAAGCAAUAUUACGUCGU | -0.899 ± 0.073 | -0.178 ± 0.085
CCCCAGCAAUAUUACGGCCU | -3.02 ± 0.29 | -2.82 ± 0.47
UACAAGCAAUAUUACGACGG | -0.767 ± 0.059 | -0.442 ± 0.079
GGCGAGCAAUAUUACGAUCG | -2.53 ± 0.21 | -0.978 ± 0.21

Sequence | self-splicing fitness (ln) (30 °C) | self-splicing fitness (ln) (37 °C)
AUUGAGCAAUAUUACGCUAU | -3.5 ± 0.44 | -2.12 ± 0.42
CUGUAGCAAUAUUACGAUGA | -1.86 ± 0.16 | -1.83 ± 0.16
AGGCAGCAAUAUUACGUAUU | -1.41 ± 0.095 | -1.22 ± 0.12
CGUCAGCAAUAUUACGUAGC | -2.81 ± 0.12 | -2.29 ± 0.14
CUGAAGCAAUAUUACGGACU | -2.85 ± 0.22 | -0.495 ± 0.17
GUGGAGCAAUAUUACGUUGU | -2.93 ± 0.12 | -2.53 ± 0.21
AGUUAGCAAUAUUACGAGUC | -2.76 ± 0.33 | -3.27 ± 0.47
CUGGAGCAAUAUUACGUCCG | -2.17 ± 0.16 | -0.559 ± 0.15
AUGAAGCAAUAUUACGGGAU | -0.638 ± 0.056 | -0.499 ± 0.093
GUGAAGCAAUAUUACGGGUG | -1.39 ± 0.075 | -0.589 ± 0.11
GAUGAGCAAUAUUACGGGGC | -3.24 ± 0.33 | -2.28 ± 0.23
AUCGAGCAAUAUUACGUUCA | -0.62 ± 0.095 | -0.544 ± 0.13
CGCUAGCAAUAUUACGAGUU | -2.49 ± 0.1 | -2.38 ± 0.15
AUCGAGCAAUAUUACGGCCU | -3.22 ± 0.3 | -1.2 ± 0.17
GCACAGCAAUAUUACGUGGU | -3.37 ± 0.12 | -1.82 ± 0.097
AUUGAGCAAUAUUACGGUCU | -2.72 ± 0.15 | -2.56 ± 0.25
GGACAGCAAUAUUACGGAAU | -1.19 ± 0.089 | -0.191 ± 0.12
CGCAAGCAAUAUUACGGCGU | -3.52 ± 0.15 | -2.2 ± 0.18
GCAUAGCAAUAUUACGAUGC | -2.72 ± 0.28 | –
CCGGAGCAAUAUUACGGCUU | -0.296 ± 0.29 | -1.49 ± 0.33
CACUAGCAAUAUUACGAUUC | -3.02 ± 0.23 | -1.14 ± 0.26
CGCUAGCAAUAUUACGACCC | -0.616 ± 0.16 | -0.956 ± 0.45
AUAAAGCAAUAUUACGGCCG | -0.128 ± 0.1 | 0.3 ± 0.16
AAGUAGCAAUAUUACGAAAA | -2.83 ± 0.28 | -2.14 ± 0.26

Reference: the supplement of paper PMC7877785
